Experimental data taken from patent US20260217835A1 (published 2026).

How the values were obtained:
[1] = target: T1, Fc fragment SEQ ID NO: 594 (coexpressed with the L235R/G236R heavy chains) (Homo sapiens (Human), UniProt P01857 104-328 = IgG part); assay: SEC peak area ratio; full-length heavy chain, light chain and Fc fragment coexpressed in Expi293F, affinity purified
T1 construct: Fc fragment without CH3 interface modification

[2] = target: the molecule itself; assay: as above
[3] = target: the molecule itself; assay: SEC area ratio after coexpression of heavy chain, light chain and Fc fragment

Heteromultimer (%) [1] [%]	Binder	Homo full-length heavy chain (%) [2] [%]	Homo full-length heavy chain (%) [3] [%]
0	Full-length heavy chain with L235R/G236R (suppress FcγR binding) and E356K/K392D/D399K/K439E (SEQ ID NO: 137), with light chain SEQ ID NO: 61 (antibody, human IgG1, kappa, also called Sample No. 317 full-length heavy chain) heavy: QVQLQESGPGLVRPSQTLSLTCTVSGYSITSDHAWSWVRQPPGRGLEWIGYISYSGITTYNPSLKSRVTMLRDTSKNQFSLRLSSVTAADTAVYYCARSLARTTAMDYWGQGSLVTVSSASTKGPSVFPLAPSSKSTSGGTAALGCLVKDYFPEPVTVSWNSGALTSGVHTFPAVLQSSGLYSLSSVVTVPSSSLGTQTYICNVNHKPSNTKVDKRVEPKSCDKTHTCPPCPAPELRRGPSVFLFPPKPKDTLMISRTPEVTCVVVDVSHEDPEVKFNWYVDGVEVHNAKTKPREEQYNSTYRVVSVLTVLHQDWLNGKEYKCKVSNKALPAPIEKTISKAKGQPREPQVYTLPPSRKEMTKNQVSLTCLVKGFYPSDIAVEWESNGQPENNYDTTPPVLKSDGSFFLYSKLTVDKSRWQQGNVFSCSVMHEALHNHYTQESLSLSP light: not shown	62.2	
3.4	Full-length heavy chain with L235R/G236R (suppress FcγR binding) and T366W/L368A/Y407V (SEQ ID NO: 135), with light chain SEQ ID NO: 61 (antibody, human IgG1, kappa) heavy: QVQLQESGPGLVRPSQTLSLTCTVSGYSITSDHAWSWVRQPPGRGLEWIGYISYSGITTYNPSLKSRVTMLRDTSKNQFSLRLSSVTAADTAVYYCARSLARTTAMDYWGQGSLVTVSSASTKGPSVFPLAPSSKSTSGGTAALGCLVKDYFPEPVTVSWNSGALTSGVHTFPAVLQSSGLYSLSSVVTVPSSSLGTQTYICNVNHKPSNTKVDKRVEPKSCDKTHTCPPCPAPELRRGPSVFLFPPKPKDTLMISRTPEVTCVVVDVSHEDPEVKFNWYVDGVEVHNAKTKPREEQYNSTYRVVSVLTVLHQDWLNGKEYKCKVSNKALPAPIEKTISKAKGQPREPQVYTLPPSREEMTKNQVSLWCAVKGFYPSDIAVEWESNGQPENNYKTTPPVLDSDGSFFLVSKLTVDKSRWQQGNVFSCSVMHEALHNHYTQKSLSLSP light: not shown	58.1	
0	Full-length heavy chain with L235R/G236R (suppress FcγR binding) and T394W/F405A (SEQ ID NO: 134), with light chain SEQ ID NO: 61 (antibody, human IgG1, kappa) heavy: QVQLQESGPGLVRPSQTLSLTCTVSGYSITSDHAWSWVRQPPGRGLEWIGYISYSGITTYNPSLKSRVTMLRDTSKNQFSLRLSSVTAADTAVYYCARSLARTTAMDYWGQGSLVTVSSASTKGPSVFPLAPSSKSTSGGTAALGCLVKDYFPEPVTVSWNSGALTSGVHTFPAVLQSSGLYSLSSVVTVPSSSLGTQTYICNVNHKPSNTKVDKRVEPKSCDKTHTCPPCPAPELRRGPSVFLFPPKPKDTLMISRTPEVTCVVVDVSHEDPEVKFNWYVDGVEVHNAKTKPREEQYNSTYRVVSVLTVLHQDWLNGKEYKCKVSNKALPAPIEKTISKAKGQPREPQVYTLPPSREEMTKNQVSLTCLVKGFYPSDIAVEWESNGQPENNYKTWPPVLDSDGSFALYSKLTVDKSRWQQGNVFSCSVMHEALHNHYTQKSLSLSP light: not shown	64.1	
0	Full-length heavy chain with L235R/G236R (suppress FcγR binding) and Q347R/K360E/D399V/F405T/K409W (SEQ ID NO: 136), with light chain SEQ ID NO: 61 (antibody, human IgG1, kappa) heavy: QVQLQESGPGLVRPSQTLSLTCTVSGYSITSDHAWSWVRQPPGRGLEWIGYISYSGITTYNPSLKSRVTMLRDTSKNQFSLRLSSVTAADTAVYYCARSLARTTAMDYWGQGSLVTVSSASTKGPSVFPLAPSSKSTSGGTAALGCLVKDYFPEPVTVSWNSGALTSGVHTFPAVLQSSGLYSLSSVVTVPSSSLGTQTYICNVNHKPSNTKVDKRVEPKSCDKTHTCPPCPAPELRRGPSVFLFPPKPKDTLMISRTPEVTCVVVDVSHEDPEVKFNWYVDGVEVHNAKTKPREEQYNSTYRVVSVLTVLHQDWLNGKEYKCKVSNKALPAPIEKTISKAKGQPREPRVYTLPPSREEMTENQVSLTCLVKGFYPSDIAVEWESNGQPENNYKTTPPVLVSDGSFTLYSWLTVDKSRWQQGNVFSCSVMHEALHNHYTQKSLSLSP light: not shown	60.2	
	Full-length IgG2 heavy chain SEQ ID NO: 104 (E356K/K392D/D399K/K439E) with light chain SEQ ID NO: 61 (antibody, also called full-length heavy chain of Sample No. 252) heavy: QVQLQESGPGLVRPSQTLSLTCTVSGYSITSDHAWSWVRQPPGRGLEWIGYISYSGITTYNPSLKSRVTMLRDTSKNQFSLRLSSVTAADTAVYYCARSLARTTAMDYWGQGSLVTVSSASTKGPSVFPLAPCSRSTSESTAALGCLVKDYFPEPVTVSWNSGALTSGVHTFPAVLQSSGLYSLSSVVTVPSSNFGTQTYTCNVDHKPSNTKVDKTVERKCCVECPPCPAPPVAGPSVFLFPPKPKDTLMISRTPEVTCVVVDVSHEDPEVQFNWYVDGVEVHNAKTKPREEQFNSTFRVVSVLTVVHQDWLNGKEYKCKVSNKGLPAPIEKTISKTKGQPREPQVYTLPPSRKEMTKNQVSLTCLVKGFYPSDIAVEWESNGQPENNYDTTPPMLKSDGSFFLYSKLTVDKSRWQQGNVFSCSVMHEALHNHYTQESLSLSP light: not shown		82.7
